Measured values reported in patent US20120316071A1 (published 2012).
Values belong to the binder of their own block, whether it stands above or below them.

Experiments:
[1] = biological target: T1, rHuman ErbB2/Fc Chimera, CF (R&D Systems Cat#1129-ER) (human, UniProt P04626 23-652); assay: MSD Multispot ECL, antigen spotted on plate, Fab 8.1 nM; blank spot 435
T1 construct: Bought reagent; also called human epidermal growth factor 2 receptor; Fc part of the bought chimera not given

[2] = biological target: T2, rHuman IGF-1 sR, (IGF-1 sR), CF (R&D Systems Cat#391-GR) (human, UniProt P08069 31-932); assay: as above
T2 construct: Bought soluble receptor; also called insulin-like growth factor-1 soluble receptor

[3] = biological target: T3, rHuman EGF R/Fc Chimera, CF (R&D Systems Cat#344-ER) (human, UniProt P00533 25-645); assay: as above
T3 construct: Bought reagent; also called epidermal growth factor receptor; Fc part of the bought chimera not given

[4] = biological target: T4, rHuman Notch-1/Fc Chimera, CF (R&D Systems Cat#3647-TK) (human, UniProt P46531 19-526); assay: as above
T4 construct: Bought reagent; Fc part of the bought chimera not given

[5] = biological target: T5, Recombinant Human DLL4 (R&D Systems Cat#1506-D4/CF) (human, UniProt Q9NR61 27-529); assay: as above
T5 construct: Bought recombinant protein; also called rHuman DLL4; delta-like protein 4

[6] = biological target: T6, rHuman CD44/Fc Chimera, CF (R&D Systems Cat#3660-CD) (human, UniProt P16070 21-220); assay: as above
T6 construct: Bought reagent; Fc part of the bought chimera not given

[7] = biological target: T7, rHuman Erythropoietin R/Fc Chimera, CF (R&D Systems Cat#963-ER) (human, UniProt P19235 25-250); assay: as above
T7 construct: Bought reagent; also called EPO R/Fc; EPO R; Fc part of the bought chimera not given
T7 sequence (looked up): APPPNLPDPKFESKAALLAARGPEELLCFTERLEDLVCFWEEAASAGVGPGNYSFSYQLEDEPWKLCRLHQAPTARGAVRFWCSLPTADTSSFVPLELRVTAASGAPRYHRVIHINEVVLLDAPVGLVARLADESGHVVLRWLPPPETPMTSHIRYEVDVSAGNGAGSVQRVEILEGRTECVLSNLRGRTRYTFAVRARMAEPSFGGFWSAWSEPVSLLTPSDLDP

[8] = biological target: T8, rHuman HGF R/c-MET/Fc Chimera, CF (R&D Systems Cat#358-MT/CF) (human, UniProt P08581 25-932); assay: as above
T8 construct: Bought reagent; also called HGF R/Fc; hepatocyte growth factor receptor; Fc part of the bought chimera not given

[9] = biological target: T9, rHuman CD44/Fc Chimera, CF (R&D Systems Cat#3660-CD) (human, UniProt P16070 21-220); assay: MSD multispot ECL, antigen spotted on plate, Fab 352.5 nM; blank spot 494
T9 construct: Bought from R&D Systems; not shown: Fc of the bought chimera

[10] = biological target: T10, Recombinant Human DLL4 (R&D Systems Cat#1506-D4/CF) (human, UniProt Q9NR61 27-524); assay: as above
T10 construct: Bought from R&D Systems; also called rHuman DLL4; delta-like protein 4

[11] = biological target: T11, rHuman HGF R/c-MET/Fc Chimera, CF (R&D Systems Cat#358-MT/CF) (human, UniProt P08581 25-932); assay: as above
T11 construct: Bought from R&D Systems; also called HGF R/Fc; hepatocyte growth factor receptor (HGF R/c-Met); not shown: Fc of the bought chimera

[12] = biological target: T12, rHuman ErbB2/Fc Chimera, CF (R&D Systems Cat#1129-ER) (human, UniProt P04626 23-652); assay: as above
T12 construct: Bought from R&D Systems; also called human epidermal growth factor 2 receptor (ErbB2); not shown: Fc of the bought chimera

[13] = biological target: T13, rHuman Notch-1/Fc Chimera, CF (R&D Systems Cat#3647-TK) (human, UniProt P46531 19-526); assay: MSD multispot ECL, antigen spotted, Fab 0.6 nM; blank spot 226
T13 construct: Bought reagent

[14] = biological target: T14, rHuman HGF R/c-MET/Fc Chimera, CF (R&D Systems Cat#358-MT/CF) (human, UniProt P08581 25-932); assay: as above
T14 construct: Bought reagent; also called HGF R/Fc; hepatocyte growth factor receptor

[15] = biological target: T15, Recombinant Human DLL4 (R&D Systems Cat#1506-D4/CF) (human, UniProt Q9NR61 27-524); assay: as above
T15 construct: Bought recombinant protein; also called rHuman DLL4; delta-like protein 4

[16] = biological target: T16, rHuman ErbB2/Fc Chimera, CF (R&D Systems Cat#1129-ER) (human, UniProt P04626 23-652); assay: as above
T16 construct: Bought reagent; also called human epidermal growth factor 2 receptor

[17] = biological target: T17, rHuman Erythropoietin R/Fc Chimera, CF (R&D Systems Cat#963-ER) (human, UniProt P19235 25-250); assay: as above
T17 construct: Bought reagent; also called EPO R/Fc; Epo R
T17 sequence (looked up): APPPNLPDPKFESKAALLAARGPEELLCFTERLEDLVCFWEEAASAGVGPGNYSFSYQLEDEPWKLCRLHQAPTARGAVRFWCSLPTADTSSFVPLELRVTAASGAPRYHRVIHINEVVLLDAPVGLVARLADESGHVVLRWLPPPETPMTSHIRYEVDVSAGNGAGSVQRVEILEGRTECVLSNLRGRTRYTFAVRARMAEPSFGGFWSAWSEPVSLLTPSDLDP

[18] = biological target: T18, rHuman EGF R/Fc Chimera, CF (R&D Systems Cat#344-ER) (human, UniProt P00533 25-645); assay: as above
T18 construct: Bought reagent; also called epidermal growth factor receptor

ECL signal [1]: 557
ECL signal [2]: 518
ECL signal [3]: 560
ECL signal [4]: 612
ECL signal [5]: 1550
ECL signal [6]: 528
ECL signal [7]: 660
ECL signal [8]: 551
B1: Fab VH1-8_IGHD2-2*01_IGHJ6*01 & L12_IGKJ1*01 (Fab, V domains shown)
VH: QVQLVQSGAEVKKPGASVKVSCKASGYTFTSYDINWVRQATGQGLEWMGWMNPNSGNTGYAQKFQGRVTMTRNTSISTAYMELSSLRSEDTAVYYCARGGYCSSTSCYADYYYYYGMDVWGQGTTVTVSS
VL: not shown

ECL signal [9]: 556
ECL signal [10]: 660
ECL signal [11]: 606
ECL signal [12]: 514
B2: Fab VH1-46_IGHD3-10*01_IGHJ4*01 & B3_IGKJ1*01 (Fab, V domains shown)
VH: QVQLVQSGAEVKKPGASVKVSCKASGYTFTSYYMHWVRQAPGQGLEWMGIINPSGGSTSYAQKFQGRVTMTRDTSTSTVYMELSSLRSEDTAVYYCAREYYYGSGSYYNDYFDYWGQGTLVTVSS
VL: not shown
notes: Tested as a Fab made in E. coli; VH was cloned into Plasmid A (CH1 constant region, His6 and Flag tags); The kappa VL was cloned into Plasmid C (kappa CL)

ECL signal [13]: 337 ECL signal
ECL signal [14]: 256 ECL signal
ECL signal [15]: 508 ECL signal
ECL signal [16]: 215 ECL signal
ECL signal [17]: 337 ECL signal
ECL signal [18]: 309 ECL signal
B3: Fab VH1-46_IGHD6-6*01_IGHJ1*01 & L6_IGKJ1*01 (Fab, V domains shown)
VH: QVQLVQSGAEVKKPGASVKVSCKASGYTFTSYYMHWVRQAPGQGLEWMGIINPSGGSTSYAQKFQGRVTMTRDTSTSTVYMELSSLRSEDTAVYYCAREEYSSSSAEYFQHWGQGTLVTVSS
VL: not shown
notes: Only variable domains are tied to the molecule; Tested as a Fab made in E. coli: heavy chain from Plasmid A (CH1 constant region, His6 and Flag tags), kappa light chain from Plasmid C (kappa CL); also called parent Hit Fab against DLL4; VH1-46_IGHD6-6*01_IGHJ1*01 & L6_IGKJ1*01 (parental)
